# Assay results: patent US7033773B1, “Screening assays for G protein coupled receptor agonists and antagonists” (The General Hospital Corporation, priority 1997, dated 2006)
# Legend:
# rat PTHR = molecular target: T1, rat PTHR (Rattus norvegicus, UniProt P25961); assay: IP3 production (PLC activation) in LLC-PK1 cells expressing rat PTHR; format: cell-based
# T1 construct: expressed in transfected cells; host or cells: LLC-PK1 porcine renal epithelial cells (EW5; also EW29, AR-C38, AR-B44)
# T1 sequence (P25961 27-591): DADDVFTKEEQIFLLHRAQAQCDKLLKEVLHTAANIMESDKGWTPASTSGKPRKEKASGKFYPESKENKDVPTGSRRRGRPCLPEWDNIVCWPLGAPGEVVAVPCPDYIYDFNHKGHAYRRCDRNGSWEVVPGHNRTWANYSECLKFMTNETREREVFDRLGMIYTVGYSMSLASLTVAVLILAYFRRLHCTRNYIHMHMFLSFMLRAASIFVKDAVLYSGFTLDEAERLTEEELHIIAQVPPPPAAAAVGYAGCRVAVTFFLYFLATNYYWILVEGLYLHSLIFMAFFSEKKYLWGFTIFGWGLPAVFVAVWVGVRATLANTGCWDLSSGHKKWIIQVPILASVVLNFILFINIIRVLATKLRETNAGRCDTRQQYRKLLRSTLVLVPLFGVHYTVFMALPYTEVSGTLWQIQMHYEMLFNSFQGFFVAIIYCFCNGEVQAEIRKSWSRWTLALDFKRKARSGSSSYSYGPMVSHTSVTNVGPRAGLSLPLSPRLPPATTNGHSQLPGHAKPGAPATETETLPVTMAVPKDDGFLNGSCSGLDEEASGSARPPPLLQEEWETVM
# Description: Cells were seeded into 24-well plates at a density of 2.5×10^5 cells/well and cultured for a further 2 days before study. The cells were labeled at 37° C. for 16 h before assay with 3 uCi/ml of [^3H]myo-inositol in assay medium (serum- and inositol-free DMEM (GIBCO-BRL, Grand Island, N.Y.) supplemented with 0.1% BSA). After washing the cells with prewarmed assay medium containing 30 mM LiCl, they were incubated with 0.25 ml of assay medium containing 30 mM LiCl and stimulators (or vehicle) at 37° C. for various intervals(1-30 min). IP3 formation was arrested by aspiration and immediate addition of 0.5 ml of ice-cold 5% TCA. The acid extracts then were extracted twice with two volumes of water-saturated ether and adjusted to pH 7.4 with concentrated NaOH and Tris base (final concentration=10 mM) prior to chromatography on AG 1×8 anion-exchange columns (Bio-Rad, Richmond, Calif.), as previously described (Guo, J., et al., Endocrinology 136:3884-3891 (1995)). After eluting other fractions (free [^3H]myo-inositol, glycerophosphate inositol, IP1, and IP2), IP3 fractions were collected and their content of radioactivity was determined by liquid scintillation spectrometry (Beckman, model LS 6000IC).
# Responses to hPTH(1-34) or hPTH(1-31) (1000 nM) were measured in EW5 cells, which express 320,000 rat PTHRs per cell. Each value is the mean±SEM of a representative experiment performed in triplicate. Similar results were obtained in at least 3 individual experiments. The modest reduction in IP3 formation observed with hPTH(1-31) relative to hPTH(1-34) was confirmed in 3 other LLC-PK1 cell lines that expressed rat PTHRs (i.e. EW29, AR-C38 and AR-B44, which express 190,000, 630,000 and 800,000 PTHRs/cell, respectively), in which maximal IP3 formation after hPTH(1-31) (as % of hPTH(1-34) effect) was 75%, 77% and 64%, respectively.
# human PTH/PTHrP receptor [1] = molecular target: T2, human PTH/PTHrP receptor (Homo sapiens, UniProt Q03431); assay: Cytosolic free calcium (fura-2) in LLC-PK1 cells expressing human PTHR; settings: 100 nM peptide; HKRK B7 cells
# T2 sequence (Q03431 27-593): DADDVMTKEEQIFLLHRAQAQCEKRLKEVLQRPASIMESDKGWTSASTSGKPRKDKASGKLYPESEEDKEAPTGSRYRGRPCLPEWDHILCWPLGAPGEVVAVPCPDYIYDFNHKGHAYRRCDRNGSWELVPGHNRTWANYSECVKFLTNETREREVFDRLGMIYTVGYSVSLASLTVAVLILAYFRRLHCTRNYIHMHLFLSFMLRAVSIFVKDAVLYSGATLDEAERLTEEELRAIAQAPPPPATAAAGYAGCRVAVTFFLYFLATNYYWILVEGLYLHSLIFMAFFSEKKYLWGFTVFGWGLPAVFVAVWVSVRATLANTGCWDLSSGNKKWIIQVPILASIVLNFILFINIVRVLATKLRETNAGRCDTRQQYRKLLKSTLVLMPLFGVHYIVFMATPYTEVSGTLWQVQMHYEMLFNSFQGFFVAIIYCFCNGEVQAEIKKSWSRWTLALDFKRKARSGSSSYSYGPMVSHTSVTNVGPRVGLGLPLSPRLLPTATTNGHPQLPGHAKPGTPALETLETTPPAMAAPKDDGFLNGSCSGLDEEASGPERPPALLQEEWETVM
# Description: Cytosolic free calcium was measured in fura 2AM-loaded confluent monolayers of cells.
# Cytosolic free calcium was measured by dual fluorescence in cells loaded with the Ca^2+-sensitive intracellular probe fura-2. Cells were seeded onto glass coverslips at a density of 40,000-600,000/cm^2 and incubated for 2 days as described above. Coverslips were washed twice with PBS before loading in phosphate-free Buffer B containing 4 uM of fura-2/AM (Molecular Probes, Eugene, Oreg.) for 30 min at room temperature (22° C.). After washing twice with fura-free Buffer B, the coverslips were mounted in a cuvette containing 2 ml of phosphate-free Buffer B at 37° C. and the emission at 510 nm in response to alternating excitation at 340 and 380 nm was monitored using a ratiometric PTI Deltascan fluorescence spectrometer with excitation and emission bandwidths of 2 nm. After achieving a stable baseline, agonists were introduced by exchange into 2 ml of fresh buffer to which 10-20 ul of concentrated agonist stock (or vehicle alone) had been added. Peptide stocks were prepared in 0.1% trifluoroacetic acid, ionomycin and phorbol esters were dissolved in dimethyl sulfoxide and all other additives were prepared in water. Maximum and minimum fluorescence signals were obtained by exposure to modified buffers containing 1 uM ionomycin plus 20 mM calcium or 2 mM EGTA in the nominal absence of calcium, respectively, and autofluorescence was estimated from signals obtained in the presence of ionomycin plus 2.5 mM MnCl2.
# human PTH/PTHrP receptor [2] = molecular target: T2, human PTH/PTHrP receptor; assay: Urokinase-type plasminogen activator (u-PA) secretion bioassay in LLC-PK1 cells expressing human PTHR; settings: for secreted u-PA: peptide 1000 nM, 16 hr, mean±SEM
# Description: Cells were seeded into 96-well plates at a density of 6×10^4 cells/well and used the following day. The cells were washed once with 0.2 ml and then refed with 0.1 ml of prewarmed DMEM containing 0.05% BSA. After adding each stimulator, plates were returned to the incubator at 37° C. for 16 h. Conditioned medium (5 ul) then was transferred from each well to a clean microplate. […] Activity was expressed in Ploug units/well, using purified human urokinase (Calbiochem) as a standard.
# Cells were incubated with the indicated peptides (1000 nM) for 16 hr before measurement of secreted u-PA present in the medium, which was expressed as a percentage of the activity measured in vehicle-treated controls. Values shown are means±SEM of triplicate determinations.
substance,measurement,setting,value
hPTH(1-31),maximal IP3 formation (as % of hPTH(1-34) effect),"rat PTHR; AR-B44 cells, 800,000 rat PTHRs/cell",64%
same,maximal IP3 formation (as % of hPTH(1-34) effect),"rat PTHR; AR-C38 cells, 630,000 rat PTHRs/cell",77%
same,maximal IP3 generation relative to that by hPTH(1-34),rat PTHR; EW5 cells (and 3 other rPTHR-expressing cell lines),approximately 70%
same,IP3 Formation,"rat PTHR; EW5 cells, 320,000 rat PTHRs per cell, peptide 1000 nM, mean±SEM",316 ± 35 % of basal
same,maximal IP3 formation (as % of hPTH(1-34) effect),"rat PTHR; EW29 cells, 190,000 rat PTHRs/cell",75%
same,maximal PLC activation as % of the maximal response to hPTH(1-34),rat PTHR; LLC-PK1 cells that expressed rat PTHRs,60%
same,reduction of potency for PLC/PKC activation relative to hPTH(1-34),rat PTHR; via the rat PTHR,40%
same,cytosolic free calcium transients,human PTH/PTHrP receptor [1],fully activated cytosolic free calcium transients
same,u-PA bioassay activity (in words),human PTH/PTHrP receptor [2]; HKRK B7 and HKRK B28 cells,fully active
same,maximal activation of u-PA secretion compared with hPTH(1-34),human PTH/PTHrP receptor [2]; HKRK B7 cells and AB45 cells,identical to that of hPTH(1-34)
same,secreted u-PA,human PTH/PTHrP receptor [2]; HKRK B7 cells,101 ± 9 percentage of the activity measured in vehicle-treated controls
same,secreted u-PA,human PTH/PTHrP receptor [2]; HKRK B28 cells,101 ± 6 percentage of the activity measured in vehicle-treated controls
